From the nanobody polyreactivity screen of Harvey et al. (2022)

test: yeast display, Sf9 membrane polyspecificity reagent, FACS + sequencing; frameworks hold sequencing errors
How it was run: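 Synthetic nanobody libraries on Saccharomyces cerevisiae BJ5465 were galactose-induced for 36–48 hours, stained 1 hour at 4 °C with 10% biotinylated, detergent-solubilized Sf9 membrane reagent and enriched on streptavidin microbeads. FACS then separated cells into low and high (top ~1%) gates by anti-HA (expression) and streptavidin (reagent binding) fluorescence. Genes were colony-PCR amplified, MiSeq 2 × 250 sequenced and CDR-length filtered. A clone's polyreactivity label is that of its gate of origin.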

Q: For “QVQLVESGGGIVQAGGSLRLRCAASGFTFERYSMGWYRQAPGKERELVATITRRSGRTSYADSVKGRFTISRDNATNTVYLQMNRLKPEDTAVYYCAVDDAYPDRYDYWGQGTQVTVSS”, which “polyreactivity (PSR sort gate)” value is on record?
A: The value was “high polyreactivity”.

Q: Which “polyreactivity (PSR sort gate)” value does the source give for “QVQLVESGGGLVQAGGSLRLSCAASGSIFTYNGMGWYRQAPGKEREFVAAITWTGGSTYADSVKGRFTISRDNAKNTVYLQMNSLKPEDTAVYYCAAVRRISWYTPVNTRRYYYWGQGTQVTVSS” here?
A: The value was “high polyreactivity”.

Q: With “QVQLVESGGGLVQAGGSLRLSCAASGRTLYYNTMGWYRPAPGKERELVSSIRWDGGRTYYADSVKGRFTISRDNAKNTVYLQMNSLKPEDTAVYYCAKDGCYYYGTYAYDGCFDYWGQGTQVTVSS” as the sequence, how does the “polyreactivity (PSR sort gate)” value read?
A: Its value is “low polyreactivity”.

Q: With “QVQLVESGGGLVQAGGSLRLSCAASGSTFARYAMGWYRQAPGKERELVAGISRGGRTYYADSVMGRFTISRDYAKNTVYLQMNSLKPVDTAVYYCAKRYVTLYNSQYNYWGQGTQVTVSS” as the sequence, how does the “polyreactivity (PSR sort gate)” value read?
A: The value was “high polyreactivity”.

Q: Which “polyreactivity (PSR sort gate)” value does the source give for “QVQLVESGGGLVQAGGSLRLSCAASGSIFDYYTMGWYRQAPGKERELVAAISWSGGSTYYADSVKGRFTISRDNAKNTVYLQMNSLKPEDTAVYYCNAVGYSRYTVWSYYYWGQGTQVTVSS” here?
A: The value was “high polyreactivity”.

Q: Which “polyreactivity (PSR sort gate)” value does the source give for “QVQLLESGGGLVQAGGILRLRCAASGIIVRGYVMGWYRQAPGKESELVAAISTSGGRTSYADSVKGRFTISRDNAKNTVYLQMNSLKPEDTAVYYCAARPLYSYSQSGYGYWGQGTQVTVSS” here?
A: The value was “high polyreactivity”.

Q: With “QVLLVESGGGLVQAGGSLRLSCGASGITFAEYAMGWYRKAPGKEREFVAAISRRGGSTYYADSVKGRFTISRDNAKNTVYIQMNTLKPEDTAVYYCNRRYDTFRFEHDYDYWGQGTQVTVSS” as the sequence, how does the “polyreactivity (PSR sort gate)” value read?
A: The value was “low polyreactivity”.

Q: Which “polyreactivity (PSR sort gate)” value does the source give for “QDQLVESGGGLVQAGVSLRLSCAASGRTIRHNPMGWYIQAPGKERELVATINRGGNTYYADSVKGRFTISRDNAKNTVYLQMISLKPEDTAVYYCAARRSFLFDDGNYWGQVTQVTVSS” here?
A: The value was “low polyreactivity”.

Q: With “QVQLVESVGGLVQAGGSLRLSCAASGRTFDYYALGWYRQAPGKERELVAAISSSGGRTYYADSVKGRFTISRDNAKNTVYLQMNSLKPEDTAVYYCNAVVSRNYEYWGQGTQVTVSS” as the sequence, how does the “polyreactivity (PSR sort gate)” value read?
A: The value was “high polyreactivity”.

Q: With “QVQLVESGGGLVQAGGSLRLSCAASGRIFTGNAMGWYRQAPGKERELVAAISRRGTRTYYADSVKGRFTISRDNAKNTVYLQMNSLKPEDTAVYYCATRPGYWRYEYWGQGTQVTVSS” as the sequence, how does the “polyreactivity (PSR sort gate)” value read?
A: Its value is “high polyreactivity”.

Q: For “QVQLVESGGGLVQAGGSLRLTCDASGRTFYQNTMGWYRQAPGKERELVAAISYRVGRTYYADSVKGRFSISSDNAKNTVYLQMNSLKPEDTAVYYCAAGVWWWTIPYEYWGQGSQVTVSS”, which “polyreactivity (PSR sort gate)” value is on record?
A: The value was “high polyreactivity”.

Q: With “QVQLVESGGVLVQAGGSLRLSCAASGFIFETYVMGWYRQAPGKERELVDAISGGGSTYYADSVKGRFTISRDNAKKTVYLQMNSLKPEDTAVYYCAAKSGSFVHGGYQTPVYGSDYWGQGTQVTVSS” as the sequence, how does the “polyreactivity (PSR sort gate)” value read?
A: The value was “high polyreactivity”.

Q: With “QVEHLDSGGGLVQAGGILRLSCASSGIIFGYYAMGWYRQEPGKERELVAGITYRTGSTYYADSVKGRFTISRDNAKNTVYLQMNSLKPEDTEVYFCAATQYTRNYSSWYYYWGQGTQVTVSS” as the sequence, how does the “polyreactivity (PSR sort gate)” value read?
A: Its value is “high polyreactivity”.

Q: For “QVQLVESGGGLVQAGGSLRLSCAASGSIFYKNVMGWYRQAPGKEREFVAAISSSGGSTYYADSVKGRFTISRDNAKNTVYLQMNSLKPEDTAVYYCAATGWGLFRRRYDYWGQGTQVTVSS”, which “polyreactivity (PSR sort gate)” value is on record?
A: Its value is “low polyreactivity”.

Q: Which “polyreactivity (PSR sort gate)” value does the source give for “QVQLVESGGGLVQAGGSLRLSCAASGRIFVGYAMVWYRQAPGKERELVAGISRSGDSTYYADSVKGRFTISRDNAKNTVYLQMNSLKPEDTAVYYCAARIIYWGYYYWGQGTQVTVSS” here?
A: The value was “high polyreactivity”.

Q: With “QVQLVESGGGLVQAGGSLRLSCAASGSIFLYNTMGWYRQAPGKERELVAAITYSGGSTYYADSVKGRFTISRDNAKNTVYLQMNSLKPEDTAVYYCAARRLPRKERKLYYWGQGTQVTVSS” as the sequence, how does the “polyreactivity (PSR sort gate)” value read?
A: Its value is “high polyreactivity”.

Q: For “QVQLVESGGGLVQAGGSLRLSCAASGRTFQYYAMGWYRQAPGKERELVATISYSGGSTSYADSVKGRFTISRDNAKNTVYLQMNSLKPEDTAVYYCAADYYYGDALSPYYPHWDFYYWGQGTQVTVSS”, which “polyreactivity (PSR sort gate)” value is on record?
A: Its value is “low polyreactivity”.

Q: Which “polyreactivity (PSR sort gate)” value does the source give for “QVQLVESGGGLVQAGGSLRLSCAASGSIFVNYAIGWYRQAPGKERELVAAISRSGGRTYYADSVKGRFTISRDNAMNSVYLQMNSLKPEDTAVYYCNVYPVLRTIEGDYWGQGTQVTVSS” here?
A: Its value is “high polyreactivity”.

Q: Which “polyreactivity (PSR sort gate)” value does the source give for “QVQLVESGGGLVQAGGSLRLSCAASGGTFPSYAMGWYRQAPGKERELVAAISWSGGRTYYADSVKGRFTISRDNAKNTVYLQMNSLKPEDTAVYYCNADDYGYSFNYWGQGTQVTVSS” here?
A: The value was “high polyreactivity”.

Q: Which “polyreactivity (PSR sort gate)” value does the source give for “QVQLVESGGGLVQAGGSLRLSCAASGSTFGVYTMGWYIQAPGKERELVAAITKSGGSTYYADSVKGRFTISRDNAKNTVYLQMNSLKPEDTAVYYCNTDYGRYLYYRYGYWGQGTQVTVSS” here?
A: The value was “low polyreactivity”.

Q: Which “polyreactivity (PSR sort gate)” value does the source give for “QVKLVESGGGLVQAGGSLRLSCAASGSTLYQYTMGWYRQAPGKERELVAGISRRGGSTYYAYSVKGRFTISRDNAKNTVYLQMNSLKPEDTAVYYCAKRPHYIAWYGYNGDYWGQGTQVTVSS” here?
A: The value was “high polyreactivity”.

Q: For “QVQLVESGGGLVQAGGSLRLSCAASGSTFNTNTMGWYRQAPGKERELVAAISQSGTRTYYANSVKGRFTISRDNAKYTVYFQMNSLKPEDTAVYYCSADRQRYTSSSRKGLGYWGQGTQVTVSS”, which “polyreactivity (PSR sort gate)” value is on record?
A: The value was “high polyreactivity”.

Q: With “QVQLVESGGGLVQAGGSLRLSCAASGSTFYPYAMGWYRQAPGKERELVASITTDDGSTYYADSVKGRFTISRDNAKNTVYLQMNSLKPEDTAVYYCAARFRGFAVDWYPFRQGDYWGQGTQVTVSS” as the sequence, how does the “polyreactivity (PSR sort gate)” value read?
A: The value was “low polyreactivity”.

Q: Which “polyreactivity (PSR sort gate)” value does the source give for “QGQLVESGGGLVQAGGSLRLSCAASGRIFYIYFMGWYRQAPGKEREFVAAISQSGGSTYYADSVKGRFTISRDNAKNTVYLQMNSLKPEDTAVYYCAADRINYQHGYGYWGHGTQVTVSS” here?
A: The value was “low polyreactivity”.

Q: With “QVQLVESGGGLVQAGGSLRLSCAASGRTFGWNAMGWYRQAPGKERELVAAITRGGITNYADSVKGRFTISRDNAKNTVYLQMNSLKPEDTAVYYCNKKFYRGASRYYYWGQGTQVTVSS” as the sequence, how does the “polyreactivity (PSR sort gate)” value read?
A: The value was “high polyreactivity”.

Q: With “QVQLVESGGGLVQAGGSLRLSCAASGITFYPYAMGWYRQAPGKERELVAAISFSGGSTYYADSVKGRFTISRDNAKNTVYLQMNSLKPEDTAVYYCAADRRSGDDYWGQGTQVTVSS” as the sequence, how does the “polyreactivity (PSR sort gate)” value read?
A: The value was “high polyreactivity”.

Q: Which “polyreactivity (PSR sort gate)” value does the source give for “QLQLVESGGGLVQAGGSLRLSCAASGFTFSDYARGWYRQAPGKERELVAAINTSGGSTYYADSVKGRFTISRDNAKNTVYLQMNSLKPEDTAVYYCAAKYASLDRRRRKYDYWGQGTQVTVSS” here?
A: The value was “high polyreactivity”.

Q: For “QVQLVESGGGLVQAGGSLRLSCAASGFTFRANGMGWYRQAPGKERELVATITSGGTTNYADSVKGRLTISRDNAKNTVYLQMNSLKPEDTAVYYCNAGSVSDRQMDYWGQGTQVTVSS”, which “polyreactivity (PSR sort gate)” value is on record?
A: The value was “low polyreactivity”.

Q: With “QVKLVESGGGLVQAGGSLRLSCAASGFIFGDNAMGWYRQAPGKVREFVAAINSGSRTSYADSVKGRFTISRDNAKNTVYLQMNSLKPEDTAVYYCAAESVSSGDYASRYDYWGQGTQVTVSS” as the sequence, how does the “polyreactivity (PSR sort gate)” value read?
A: Its value is “low polyreactivity”.

Q: For “QVQLVESGGGLVQAGGSLRLSCAASGFIFPWYAMGWYRQAPGKERELVAAISWSGGSTYYADSVKWRFTISRDNAKNTVYLQMNSLKPEDTAVYYCNDLYGRPGYDYWGQGTQVTVSS”, which “polyreactivity (PSR sort gate)” value is on record?
A: The value was “low polyreactivity”.

Q: Which “polyreactivity (PSR sort gate)” value does the source give for “QVQLVESGGGLVQAGGSLRLSCAASGRTFFYYTMGWYRQAPGKERELVAAITGSGTRTYYADSVKGRFTISRDNAKNTVYYQMNSLKPEDTAVYYCAAGYSDFSGQQVYYWGQGTQVTVSS” here?
A: Its value is “high polyreactivity”.

Q: Which “polyreactivity (PSR sort gate)” value does the source give for “QVQLVESGGGLVQAGGSLRLSCAASGFTFPYYTMGWYRQAPGKERELVAAISKSGGSTYYADSVKGRFTISRDNAKNTVYLEMHSLKPEDTAVYYCNARRGSPAPYDYWGQGTQVTVSS” here?
A: Its value is “high polyreactivity”.

Q: For “QVQLVESGGGLVQAGGSLRISCAASRSIFPLNAMGWYRQAPGKERELVAAITRSGGSTYYADSVKGRFTISRDNAKNTVYLQMNSLKPEDTAVYYCATDPEWPLPAYYYWGQGTQVTVSS”, which “polyreactivity (PSR sort gate)” value is on record?
A: Its value is “low polyreactivity”.

Q: With “QHQHVESGGGLDQAGGSLRLSCAASGSTFQIYAMGWYRQAPGKERELVAAIDFSGGSTYYADSVKGRFTISRDNAKYTVYLQMNSLKQEDTAVYYCAADLALYSHFGEYEYWGQGTQVTVSS” as the sequence, how does the “polyreactivity (PSR sort gate)” value read?
A: Its value is “low polyreactivity”.

Q: With “QVQLVESGGGLVQAGGSLRLSCAASGRTFFKYVKGWYRQAPGKERELVAAISSGGSTNYADSVKGRFTISRDNAKNTVYLQMNSVKPEDTAVYSCAASRYRGYYYWGQGTQVTVSS” as the sequence, how does the “polyreactivity (PSR sort gate)” value read?
A: Its value is “high polyreactivity”.

Q: Which “polyreactivity (PSR sort gate)” value does the source give for “QVQLVESGGGLVQAGGSLRLSCAASGITIVRYAMGWYRQAPGKERELVAAINRSGGSTYYADSVKGRFTISRDNAKNTVYLQMNSLKPEDTAVYYCAARLYGKYDPPGYYYWGQVTQVTVSS” here?
A: Its value is “high polyreactivity”.

Q: Which “polyreactivity (PSR sort gate)” value does the source give for “QVQLVESGGGLVQAGGSLRLSCAASGSIFQRNAMGSYRQAPGKERELVAAITYSGGGTYYADSVKGRFTISRDNAKNTVYLQMNSLKPEDTAVYYCNADGPSTPWVDYGYWGQGTQVTVSS” here?
A: The value was “low polyreactivity”.

Q: For “QVQLVESGGGLVQAGGSLSLSCAASVRIFVYNVMGWYRQAPGKERELVAAISWGTGSTYADSVKGRFTISRDNAKNTVYLQMNSLKPEDTAVYYCAAAADYYYDHDYWGQGTQVTVSS”, which “polyreactivity (PSR sort gate)” value is on record?
A: The value was “low polyreactivity”.

Q: Which “polyreactivity (PSR sort gate)” value does the source give for “QVQLVESGGGLVQAAGSLRISCAASGLIFGWNAMGWYRQAPGKERELVAAITSGGSTYYADSVKGRFTISRDNAKNTVYLQMNSLKPEDTAVYYCAAVYVLGKTGRVYGKYGYWGQGTQVTVSS” here?
A: Its value is “high polyreactivity”.

Q: For “QVQLVESGGGLVQAGGSLRLSCAASGSTFYTNAMGWYRQAPGKERELVASITDGGDSTHYADSVKGRFTISRDNAKNTVYLQMNSLKPEDTAVYYCAVDYQYFQEYDSWGQGTQVTVSS”, which “polyreactivity (PSR sort gate)” value is on record?
A: Its value is “low polyreactivity”.

Q: Which “polyreactivity (PSR sort gate)” value does the source give for “QVHLVESGGGLVQAGGSLRLSCAASGSTFLLNAMGWYRQATGKERELVAGITGSGGRTYYADSVKGRFTISRDNAKNTVYLQMNSLKPEDTAVYYCAAYRNLYWYQHEYWGQGTLVTVSS” here?
A: The value was “low polyreactivity”.
